These results are taken from patent US20040161798A1.

For orientation: Kd means the constant that tells how readily two partners part at equilibrium. Read a high Kd as weaker binding.

Some results are limits rather than exact numbers.

Test [1] deals with T1, His6Gal80, P04387.
T1 chain: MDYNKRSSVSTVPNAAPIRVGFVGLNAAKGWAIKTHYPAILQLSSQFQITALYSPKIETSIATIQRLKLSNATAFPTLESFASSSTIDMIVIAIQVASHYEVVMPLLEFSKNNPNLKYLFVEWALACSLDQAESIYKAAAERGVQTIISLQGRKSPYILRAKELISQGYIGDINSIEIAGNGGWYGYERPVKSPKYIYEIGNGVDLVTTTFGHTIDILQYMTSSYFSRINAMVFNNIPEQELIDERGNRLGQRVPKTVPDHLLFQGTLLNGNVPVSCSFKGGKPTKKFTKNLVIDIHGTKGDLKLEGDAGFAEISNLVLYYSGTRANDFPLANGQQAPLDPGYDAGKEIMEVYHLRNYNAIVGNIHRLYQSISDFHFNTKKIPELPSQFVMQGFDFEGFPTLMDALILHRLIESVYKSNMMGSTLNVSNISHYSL
Nature of the test: fluorescence polarization titration of fluorescein-labeled peptide in solution.

For test [2], the target named is T1, His6Gal80, P04387. Nature of the test: capture of dilute Gal80 by TentaGel-Gal80bp, Western blot against a calibration blot.
Test [3] has as its target T1, His6Gal80, P04387. Nature of the test: fluorescence polarization after adding excess unlabeled peptide.
Test [4] deals with T1, His6Gal80, P04387. Nature of the test: capture of dilute Gal80 (0.4 nM) by TentaGel-Gal80bp, Western blot. (In general: In western blotting, separated proteins are transferred to a membrane and probed.)
Test [5] has as its target T1, His6Gal80, P04387. The test is described as follows: capture of Gal80 by 2 mg of TentaGel-Gal80bp at the higher protein concentrations, Western blot.
Test [6] deals with T1, His6Gal80, P04387. Nature of the test: fluorescence polarization in solution: fluorescein-labelled peptide titrated with Gal80 protein. For orientation: Polarisation of emitted light reports the rotation of a fluorescent probe.
Test [7] addresses T1, His6Gal80, P04387. The test is described as follows: dilution assay on TentaGel beads, Western blot.

B1: Gal80bp (peptide)
peptide: YDQDMQNNTFDDLFWKEGHR
modifications: not checked
B1: the Kd in the test with His6Gal80, P04387 [1] is 300 nM; with His6Gal80, P04387 [2], under 0.4 nM; with His6Gal80, P04387 [6], 200 nM. In the test with His6Gal80, P04387 [3], the half-life of the complex in solution was under 10 s. The percent of the protein bound to the beads with His6Gal80, P04387 [4] was 100%. This molecule came in with an amount of protein retained on the beads in the test with His6Gal80, P04387 [5] of 50 ng. In the test with His6Gal80, P04387 [7], this molecule returned a bound protein left on the beads (percent of the original level) of 50%.
